Measurements reported in patent US5942663A, “Biocidal proteins” (Zeneca Limited, priority 1991, dated 1999).
No end group written: not given here.

Legend:
Verticillium dahliae = format: cell-based; details: V dahliae, 48 hours of incubation
Nectria haematococca = format: cell-based; details: N haematococca, 48 hours of incubation
Fusarium culmorum [1] = assay: Stability of the antifungal activity of the Mj-AMPs; format: cell-based
Description: Antifungal activity was measured by microspectrophotometry as previously described (Broekaert, WF et al; 1990; FEMS Microbiol Lett, 69, 55-60). Routinely, tests were performed with 20 μl of a (filter-sterilized) test solution and 80 μl of a fungal spore suspension (2×10^4 spores/ml) in half strength Potato Dextrose Broth (Difco). Control microcultures contained 20 μl of (sterile) distilled water and 80 μl of the fungal spore suspension. Unless otherwise stated the test organism was Fusarium culmorum and incubation was done at 25° C. for 48 hours. Percent growth inhibition is defined as 100 times the ratio of the corrected absorbance of the control microculture minus the corrected absorbance of the test microculture over the corrected absorbance at 595 nm of the control microculture. The corrected absorbance values equal the absorbance at 595 nm of the culture measured after 48 hours minus the absorbance at 595 nm measured after 30 min. Values of growth inhibition lower than 10% are not indicated on the chromatograms.
Table 1 summarises the results of further testing of the stability of the antifungal activity of the Mj-AMPs. Tests for antifungal activity were performed with 20 μl samples diluted five-fold with growth medium containing Fusarium culmorum spores (2×10^4 spores/ml), according to the assay method given in Example 2. Control samples contained either Mj-AMP1 at 500 μg/ml or Mj-AMP2 at 100 μg/ml in 10 mM sodium phosphate buffer (pH 7). Reduction was done by addition of DTT at 2.5 mM followed by incubation at 37° C. for 2 hours. pH stability was tested in the following buffers: 20 mM glycine-HCl (pH 2 and 3); 20 mM diethanolamine-HCl (pH 10); and 20 mM glycine-NaOH (pH 11). After 1 hour of incubation in the appropriate buffers the samples were dialyzed for 16 hours against 10 mm sodium phosphate buffer (pH 7). For digestions, proteases were added at 100 μg/ml and incubated at 37° C. for 16 hours.

Ascochyta pisi = format: cell-based; details: A pisi, 48 hours of incubation
[2] = test system: Colletotrichum lindemuthianum; format: cell-based; details: C lindemuthianum, 48 hours of incubation
Saccharomyces cerevisiae = assay: Inhibitory activity against yeast; format: cell-based; design: key: +++:complete inhibition; +:some inhibition; -:no inhibition
Description: The inhibitory activity of Mj-AMPs against yeast, Saccharomyces cerevisiae was tested. The results shown in Table 5 indicate that Mj-AMPs do inhibit the growth of yeast at concentrations of 500 μg/ml or above.

Fusarium culmorum [3] = format: cell-based; details: F culmorum, 48 hours of incubation
Botrytis cinerea = format: cell-based; details: B cinerea, 48 hours of incubation
Sarcina lutea = assay: Antibacterial activity in vitro test; format: cell-based; details: S lutea, 48 hours
Description: (§1) The antibacterial activity of the Mj-AMPs was tested against a range of gram-positive and gram-negative bacteria: Bacillus megaterium, Sarcina lutea, Escherichia coli and Erwinia carotovora. β-purothionin and UDA were also tested for comparison (see Example 7). Tests were performed in soft agarose medium containing 1% tryptone and, with or without 1 mM CaCl2 and 50 mM KCl. Absorbance, 595 nm, of the culture was measured after 48 hours.

Erwinia carotovora = assay: Antibacterial activity in vitro test; format: cell-based; details: E carotovora, 48 hours
Description: as §1

Escherichia coli = assay: Antibacterial activity in vitro test; format: cell-based; details: E coli, 48 hours
Description: as §1

Bacillus megaterium = assay: Antibacterial activity in vitro test; format: cell-based; details: B megaterium, 48 hours
Description: as §1

Pyricularia oryzae = format: cell-based
Phoma betae = format: cell-based; details: P betae, 48 hours of incubation
Venturia inaequalis = format: cell-based; details: V inaequalis, 10 days of incubation
Isoelectric focusing = format: physicochemical; details: isoelectric focusing on Immobiline Dry Strips
Description: PAS staining for glycoproteins was done by the method of Zacharius, RM et al (1969; Anal Biochem, 30, 148-152) using ovalbumin (3.2% carbohydrate) as a positive control sample. The pI values of Mj-AMP1 and Mj-AMP2 were determined by isoelectric focusing and found to be about 10.5 for both proteins. Isoelectric focussing was done on precast Immobiline Dry Strips (Pharmacia) using marker proteins in the pI range from 4.7 to 10.6 (Pharmacia).

[4] = test system: Pyrenophora tritici-repentis; format: cell-based; details: P tritici-repentis, 48 hours of incubation
[5] = test system: Fusarium oxysporum f.sp. lycopersici; format: cell-based; details: 48 hours of incubation
[6] = test system: Fusarium oxysporum f.sp. pisi; format: cell-based; details: 48 hours of incubation
Alternaria brassicola = format: cell-based; details: A brassicola, 48 hours of incubation
[7] = MEDIUM +Ca/K (1 mM CaCl2 and 50 mM KCl)

Mj-AMP2: antimicrobial protein from Mirabilis jalapa seeds, dimer of two 3.5 kDa subunits, 36 residues, SEQ ID NO:2 (CIGNGGRCNENVGPPYCCSGFCLRQPNQGYGVCRNR; cysteine pairing not given here; also: homodimer)
IC50 (Verticillium dahliae): 0.5 µg/mL
IC50 (Nectria haematococca): 0.5 µg/mL
Relative antifungal activity (shown as % of control activity) (Fusarium culmorum [1]; 80° C., 10 min): 100 % of control activity
Relative antifungal activity (shown as % of control activity) (Fusarium culmorum [1]; 90° C., 10 min): 100 % of control activity
Relative antifungal activity (shown as % of control activity) (Fusarium culmorum [1]; 100° C., 10 min): 100 % of control activity
Relative antifungal activity (shown as % of control activity) (Fusarium culmorum [1]; Chymotrypsin digestion, 100 μg/ml, 37° C., 16 hours): 50 % of control activity
Relative antifungal activity (shown as % of control activity) (Fusarium culmorum [1]; Control: Mj-AMP1 500 μg/ml or Mj-AMP2 100 μg/ml in 10 mM sodium phosphate buffer pH 7): 100 % of control activity
Relative antifungal activity (shown as % of control activity) (Fusarium culmorum [1]; Pronase E digestion, 100 μg/ml, 37° C., 16 hours): 25 % of control activity
Relative antifungal activity (shown as % of control activity) (Fusarium culmorum [1]; Proteinase K digestion, 100 μg/ml, 37° C., 16 hours): 100 % of control activity
Relative antifungal activity (shown as % of control activity) (Fusarium culmorum [1]; Reduction: DTT 2.5 mM, 37° C., 2 hours): < 3 % of control activity
Relative antifungal activity (shown as % of control activity) (Fusarium culmorum [1]; Trypsin digestion, 100 μg/ml, 37° C., 16 hours): 100 % of control activity
Relative antifungal activity (shown as % of control activity) (Fusarium culmorum [1]; pH 2, 60 min): 100 % of control activity
Relative antifungal activity (shown as % of control activity) (Fusarium culmorum [1]; pH 3, 60 min): 100 % of control activity
Relative antifungal activity (shown as % of control activity) (Fusarium culmorum [1]; pH 10, 60 min): 100 % of control activity
Relative antifungal activity (shown as % of control activity) (Fusarium culmorum [1]; pH 11, 60 min): 100 % of control activity
Sensitivity to protease (in words) (Fusarium culmorum [1]; pronase E): most sensitive
IC50 (Ascochyta pisi): 6 µg/mL
IC50 [2]: 1 µg/mL
Inhibitory activity against yeast (Saccharomyces cerevisiae; with Ca/K, 5 μg/ml): -
Inhibitory activity against yeast (Saccharomyces cerevisiae; with Ca/K, 50 μg/ml): +++
Inhibitory activity against yeast (Saccharomyces cerevisiae; with Ca/K, 500 μg/ml): +++
Inhibitory activity against yeast (Saccharomyces cerevisiae; without Ca/K, 5 μg/ml): +++
Inhibitory activity against yeast (Saccharomyces cerevisiae; without Ca/K, 50 μg/ml): +++
Inhibitory activity against yeast (Saccharomyces cerevisiae; without Ca/K, 500 μg/ml): +++
IC50 (Fusarium culmorum [3]): 3 µg/mL
IC50 (Botrytis cinerea): 2 µg/mL
IC50 (Sarcina lutea; [7]): > 500 µg/mL
IC50 (Sarcina lutea; MEDIUM -Ca/K): 50 µg/mL
IC50 (Erwinia carotovora; [7]): > 500 µg/mL
IC50 (Erwinia carotovora; MEDIUM -Ca/K): > 500 µg/mL
IC50 (Escherichia coli; [7]): > 500 µg/mL
IC50 (Escherichia coli; MEDIUM -Ca/K): > 500 µg/mL
IC50 (Bacillus megaterium; [7]): 10 µg/mL
IC50 (Bacillus megaterium; MEDIUM -Ca/K): 2 µg/mL
IC50 (Pyricularia oryzae): 0.5 µg/mL
IC50 (Phoma betae): 6 µg/mL
IC50 (Venturia inaequalis): 1 µg/mL
pI (Isoelectric focusing): about 10.5
IC50 [4]: 20 µg/mL
IC50 [5]: 10 µg/mL
IC50 [6]: 5 µg/mL
IC50 (Alternaria brassicola): 6 µg/mL

B1: UDA: known antifungal protein isolated from stinging nettle (Urtica dioica) rhizomes (protein, UniProt P11218 24-372, looked up)
Lectin/endochitinase 1: QRCGSQGGGGTCPALWCCSIWGWCGDSEPYCGRTCENKCWSGERSDHRCGAAVGNPPCGQDRCCSVHGWCGGGNDYCSGSKCQYRCSSSVRGPRVALSGNSTANSIGNVVVTEPLFDQMFSHRKDCPSQGFYSYHSFLVAAESFPAFGTIGDVATRKREVAAFLAHISQATSGERSDVENPHAWGLCHINTTTVTENDFCTSSDWPCAAGKKYSPRGPIQLTHNFNYGLAGQAIGEDLIQNPDLVEKDPIISFKTALWFWMSQHDNKPSCHDIVLNANSAANRIPNKGVIGNIISRAFGHDDFAVRSSSIGFYKRYCDMLGVSYGHDLKYWFDNTPSSEFQRIQMRVAA
IC50 (Verticillium dahliae): 80 µg/mL
IC50 (Nectria haematococca): 200 µg/mL
IC50 (Ascochyta pisi): 1,000 μg/ml
IC50 [2]: 20 µg/mL
IC50 (Fusarium culmorum [3]): > 1,000 μg/ml
IC50 (Botrytis cinerea): > 1,000 μg/ml
IC50 (Sarcina lutea; [7]): > 500 µg/mL
IC50 (Sarcina lutea; MEDIUM -Ca/K): > 500 µg/mL
IC50 (Erwinia carotovora; [7]): > 500 µg/mL
IC50 (Erwinia carotovora; MEDIUM -Ca/K): > 500 µg/mL
IC50 (Escherichia coli; [7]): > 500 µg/mL
IC50 (Escherichia coli; MEDIUM -Ca/K): > 500 µg/mL
IC50 (Bacillus megaterium; [7]): > 500 µg/mL
IC50 (Bacillus megaterium; MEDIUM -Ca/K): 250 µg/mL
IC50 (Phoma betae): 50 µg/mL
IC50 (Venturia inaequalis): 1,000 μg/ml
IC50 [4]: 200 µg/mL
IC50 [6]: > 1,000 μg/ml
IC50 (Alternaria brassicola): 200 µg/mL
